# Article PMC12785156 (2025)
# T1: GST-PUB11-ARM (Arabidopsis thaliana)
# T1 chain: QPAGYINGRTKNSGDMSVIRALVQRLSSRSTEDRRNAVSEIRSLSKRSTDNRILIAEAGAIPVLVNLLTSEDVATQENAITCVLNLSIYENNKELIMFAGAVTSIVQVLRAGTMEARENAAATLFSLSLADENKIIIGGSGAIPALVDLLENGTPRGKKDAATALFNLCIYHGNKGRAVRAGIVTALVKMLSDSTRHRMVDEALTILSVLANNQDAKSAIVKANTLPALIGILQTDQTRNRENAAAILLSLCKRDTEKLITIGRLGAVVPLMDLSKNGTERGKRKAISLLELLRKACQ
# Target: T1, GST-PUB11-ARM
# Test: MST
row,Binder,Kd [µM]
1,"AtHPPD-F29Y (protein, GST carrier omitted. Limits not printed: ARM region taken as everything after the U-box (240-314) to the C-terminus) MGHQNAAVSENQNHDDGAASSPGFKLVGYSKFVRKNPKSDKFKVKRFHHIEFWCGDATNVARRFSWGLGMRFSAKSDLSTGNMVHASYLLTSGDLRFLFTAPYSPSLSAGEIKPTTTASIPSFDHGSCRSFFSSHGLGVRAVAIEVEDAESAFSISVANGAIPSSPPIVLNEAVTIAEVKLYGDVVLRYVSYKAEDTEKSEFLPGFERVEDASSFPLDYGIRRLDHAVGNVPELGPALTYVAGFTGFHQFAEFTADDVGTAESGLNSAVLASNDEMVLLPINEPVHGTKRKSQIQTYLEHNEGAGLQHLALMSEDIFRTLREMRKRSSIGGFDFMPSPPPTYYQNLKKRVGDVLSDDQIKECEELGILVDRDDQGTLLQIFTKPLGDRPTIFIEIIQRVGCMMKDEEGKAYQSGGCGGFGKGNFSELFKSIEEYEKTLEAKQLVG",1.08
2,"AtHPPD-F131Y (protein, GST carrier omitted. Limits not printed: ARM region taken as everything after the U-box (240-314) to the C-terminus) MGHQNAAVSENQNHDDGAASSPGFKLVGFSKFVRKNPKSDKFKVKRFHHIEFWCGDATNVARRFSWGLGMRFSAKSDLSTGNMVHASYLLTSGDLRFLFTAPYSPSLSAGEIKPTTTASIPSFDHGSCRSYFSSHGLGVRAVAIEVEDAESAFSISVANGAIPSSPPIVLNEAVTIAEVKLYGDVVLRYVSYKAEDTEKSEFLPGFERVEDASSFPLDYGIRRLDHAVGNVPELGPALTYVAGFTGFHQFAEFTADDVGTAESGLNSAVLASNDEMVLLPINEPVHGTKRKSQIQTYLEHNEGAGLQHLALMSEDIFRTLREMRKRSSIGGFDFMPSPPPTYYQNLKKRVGDVLSDDQIKECEELGILVDRDDQGTLLQIFTKPLGDRPTIFIEIIQRVGCMMKDEEGKAYQSGGCGGFGKGNFSELFKSIEEYEKTLEAKQLVG",1.26
3,"AtHPPD-F47Y (protein, GST carrier omitted. Limits not printed: ARM region taken as everything after the U-box (240-314) to the C-terminus) MGHQNAAVSENQNHDDGAASSPGFKLVGFSKFVRKNPKSDKFKVKRYHHIEFWCGDATNVARRFSWGLGMRFSAKSDLSTGNMVHASYLLTSGDLRFLFTAPYSPSLSAGEIKPTTTASIPSFDHGSCRSFFSSHGLGVRAVAIEVEDAESAFSISVANGAIPSSPPIVLNEAVTIAEVKLYGDVVLRYVSYKAEDTEKSEFLPGFERVEDASSFPLDYGIRRLDHAVGNVPELGPALTYVAGFTGFHQFAEFTADDVGTAESGLNSAVLASNDEMVLLPINEPVHGTKRKSQIQTYLEHNEGAGLQHLALMSEDIFRTLREMRKRSSIGGFDFMPSPPPTYYQNLKKRVGDVLSDDQIKECEELGILVDRDDQGTLLQIFTKPLGDRPTIFIEIIQRVGCMMKDEEGKAYQSGGCGGFGKGNFSELFKSIEEYEKTLEAKQLVG",0.23
4,"AtHPPD-F64Y (protein, GST carrier omitted. Limits not printed: ARM region taken as everything after the U-box (240-314) to the C-terminus) MGHQNAAVSENQNHDDGAASSPGFKLVGFSKFVRKNPKSDKFKVKRFHHIEFWCGDATNVARRYSWGLGMRFSAKSDLSTGNMVHASYLLTSGDLRFLFTAPYSPSLSAGEIKPTTTASIPSFDHGSCRSFFSSHGLGVRAVAIEVEDAESAFSISVANGAIPSSPPIVLNEAVTIAEVKLYGDVVLRYVSYKAEDTEKSEFLPGFERVEDASSFPLDYGIRRLDHAVGNVPELGPALTYVAGFTGFHQFAEFTADDVGTAESGLNSAVLASNDEMVLLPINEPVHGTKRKSQIQTYLEHNEGAGLQHLALMSEDIFRTLREMRKRSSIGGFDFMPSPPPTYYQNLKKRVGDVLSDDQIKECEELGILVDRDDQGTLLQIFTKPLGDRPTIFIEIIQRVGCMMKDEEGKAYQSGGCGGFGKGNFSELFKSIEEYEKTLEAKQLVG",0.37
5,"AtHPPD-F52Y (antibody, GST carrier omitted. Limits not printed: ARM region taken as everything after the U-box (240-314) to the C-terminus) MGHQNAAVSENQNHDDGAASSPGFKLVGFSKFVRKNPKSDKFKVKRFHHIEYWCGDATNVARRFSWGLGMRFSAKSDLSTGNMVHASYLLTSGDLRFLFTAPYSPSLSAGEIKPTTTASIPSFDHGSCRSFFSSHGLGVRAVAIEVEDAESAFSISVANGAIPSSPPIVLNEAVTIAEVKLYGDVVLRYVSYKAEDTEKSEFLPGFERVEDASSFPLDYGIRRLDHAVGNVPELGPALTYVAGFTGFHQFAEFTADDVGTAESGLNSAVLASNDEMVLLPINEPVHGTKRKSQIQTYLEHNEGAGLQHLALMSEDIFRTLREMRKRSSIGGFDFMPSPPPTYYQNLKKRVGDVLSDDQIKECEELGILVDRDDQGTLLQIFTKPLGDRPTIFIEIIQRVGCMMKDEEGKAYQSGGCGGFGKGNFSELFKSIEEYEKTLEAKQLVG",1.6

# The remaining lines, values ahead:
row,Kd [µM],Binder
1,1.3,"AtHPPD-F428Y (protein, GST carrier omitted. Limits not printed: ARM region taken as everything after the U-box (240-314) to the C-terminus) MGHQNAAVSENQNHDDGAASSPGFKLVGFSKFVRKNPKSDKFKVKRFHHIEFWCGDATNVARRFSWGLGMRFSAKSDLSTGNMVHASYLLTSGDLRFLFTAPYSPSLSAGEIKPTTTASIPSFDHGSCRSFFSSHGLGVRAVAIEVEDAESAFSISVANGAIPSSPPIVLNEAVTIAEVKLYGDVVLRYVSYKAEDTEKSEFLPGFERVEDASSFPLDYGIRRLDHAVGNVPELGPALTYVAGFTGFHQFAEFTADDVGTAESGLNSAVLASNDEMVLLPINEPVHGTKRKSQIQTYLEHNEGAGLQHLALMSEDIFRTLREMRKRSSIGGFDFMPSPPPTYYQNLKKRVGDVLSDDQIKECEELGILVDRDDQGTLLQIFTKPLGDRPTIFIEIIQRVGCMMKDEEGKAYQSGGCGGFGKGNFSELYKSIEEYEKTLEAKQLVG"
2,2.38,"AtHPPD-F132Y (protein, GST carrier omitted. Limits not printed: ARM region taken as everything after the U-box (240-314) to the C-terminus) MGHQNAAVSENQNHDDGAASSPGFKLVGFSKFVRKNPKSDKFKVKRFHHIEFWCGDATNVARRFSWGLGMRFSAKSDLSTGNMVHASYLLTSGDLRFLFTAPYSPSLSAGEIKPTTTASIPSFDHGSCRSFYSSHGLGVRAVAIEVEDAESAFSISVANGAIPSSPPIVLNEAVTIAEVKLYGDVVLRYVSYKAEDTEKSEFLPGFERVEDASSFPLDYGIRRLDHAVGNVPELGPALTYVAGFTGFHQFAEFTADDVGTAESGLNSAVLASNDEMVLLPINEPVHGTKRKSQIQTYLEHNEGAGLQHLALMSEDIFRTLREMRKRSSIGGFDFMPSPPPTYYQNLKKRVGDVLSDDQIKECEELGILVDRDDQGTLLQIFTKPLGDRPTIFIEIIQRVGCMMKDEEGKAYQSGGCGGFGKGNFSELFKSIEEYEKTLEAKQLVG"
3,1.65,"AtHPPD-F202Y (protein, GST carrier omitted. Limits not printed: ARM region taken as everything after the U-box (240-314) to the C-terminus) MGHQNAAVSENQNHDDGAASSPGFKLVGFSKFVRKNPKSDKFKVKRFHHIEFWCGDATNVARRFSWGLGMRFSAKSDLSTGNMVHASYLLTSGDLRFLFTAPYSPSLSAGEIKPTTTASIPSFDHGSCRSFFSSHGLGVRAVAIEVEDAESAFSISVANGAIPSSPPIVLNEAVTIAEVKLYGDVVLRYVSYKAEDTEKSEYLPGFERVEDASSFPLDYGIRRLDHAVGNVPELGPALTYVAGFTGFHQFAEFTADDVGTAESGLNSAVLASNDEMVLLPINEPVHGTKRKSQIQTYLEHNEGAGLQHLALMSEDIFRTLREMRKRSSIGGFDFMPSPPPTYYQNLKKRVGDVLSDDQIKECEELGILVDRDDQGTLLQIFTKPLGDRPTIFIEIIQRVGCMMKDEEGKAYQSGGCGGFGKGNFSELFKSIEEYEKTLEAKQLVG"
4,46.7,"AtHPPD-F419Y (protein, GST carrier omitted. Limits not printed: ARM region taken as everything after the U-box (240-314) to the C-terminus) MGHQNAAVSENQNHDDGAASSPGFKLVGFSKFVRKNPKSDKFKVKRFHHIEFWCGDATNVARRFSWGLGMRFSAKSDLSTGNMVHASYLLTSGDLRFLFTAPYSPSLSAGEIKPTTTASIPSFDHGSCRSFFSSHGLGVRAVAIEVEDAESAFSISVANGAIPSSPPIVLNEAVTIAEVKLYGDVVLRYVSYKAEDTEKSEFLPGFERVEDASSFPLDYGIRRLDHAVGNVPELGPALTYVAGFTGFHQFAEFTADDVGTAESGLNSAVLASNDEMVLLPINEPVHGTKRKSQIQTYLEHNEGAGLQHLALMSEDIFRTLREMRKRSSIGGFDFMPSPPPTYYQNLKKRVGDVLSDDQIKECEELGILVDRDDQGTLLQIFTKPLGDRPTIFIEIIQRVGCMMKDEEGKAYQSGGCGGYGKGNFSELFKSIEEYEKTLEAKQLVG"
5,1.75,"AtHPPD-F424Y (protein, GST carrier omitted. Limits not printed: ARM region taken as everything after the U-box (240-314) to the C-terminus) MGHQNAAVSENQNHDDGAASSPGFKLVGFSKFVRKNPKSDKFKVKRFHHIEFWCGDATNVARRFSWGLGMRFSAKSDLSTGNMVHASYLLTSGDLRFLFTAPYSPSLSAGEIKPTTTASIPSFDHGSCRSFFSSHGLGVRAVAIEVEDAESAFSISVANGAIPSSPPIVLNEAVTIAEVKLYGDVVLRYVSYKAEDTEKSEFLPGFERVEDASSFPLDYGIRRLDHAVGNVPELGPALTYVAGFTGFHQFAEFTADDVGTAESGLNSAVLASNDEMVLLPINEPVHGTKRKSQIQTYLEHNEGAGLQHLALMSEDIFRTLREMRKRSSIGGFDFMPSPPPTYYQNLKKRVGDVLSDDQIKECEELGILVDRDDQGTLLQIFTKPLGDRPTIFIEIIQRVGCMMKDEEGKAYQSGGCGGFGKGNYSELFKSIEEYEKTLEAKQLVG"
6,1.59,"AtHPPD-F215Y (protein, GST carrier omitted. Limits not printed: ARM region taken as everything after the U-box (240-314) to the C-terminus) MGHQNAAVSENQNHDDGAASSPGFKLVGFSKFVRKNPKSDKFKVKRFHHIEFWCGDATNVARRFSWGLGMRFSAKSDLSTGNMVHASYLLTSGDLRFLFTAPYSPSLSAGEIKPTTTASIPSFDHGSCRSFFSSHGLGVRAVAIEVEDAESAFSISVANGAIPSSPPIVLNEAVTIAEVKLYGDVVLRYVSYKAEDTEKSEFLPGFERVEDASSYPLDYGIRRLDHAVGNVPELGPALTYVAGFTGFHQFAEFTADDVGTAESGLNSAVLASNDEMVLLPINEPVHGTKRKSQIQTYLEHNEGAGLQHLALMSEDIFRTLREMRKRSSIGGFDFMPSPPPTYYQNLKKRVGDVLSDDQIKECEELGILVDRDDQGTLLQIFTKPLGDRPTIFIEIIQRVGCMMKDEEGKAYQSGGCGGFGKGNFSELFKSIEEYEKTLEAKQLVG"

# Target: GST
# Test: MST
row,Kd [µM],Binder
1,> 1000,His-AtHPPD (Arabidopsis thaliana 4-hydroxyphenylpyruvate dioxygenase) (enzyme) MGHQNAAVSENQNHDDGAASSPGFKLVGFSKFVRKNPKSDKFKVKRFHHIEFWCGDATNVARRFSWGLGMRFSAKSDLSTGNMVHASYLLTSGDLRFLFTAPYSPSLSAGEIKPTTTASIPSFDHGSCRSFFSSHGLGVRAVAIEVEDAESAFSISVANGAIPSSPPIVLNEAVTIAEVKLYGDVVLRYVSYKAEDTEKSEFLPGFERVEDASSFPLDYGIRRLDHAVGNVPELGPALTYVAGFTGFHQFAEFTADDVGTAESGLNSAVLASNDEMVLLPINEPVHGTKRKSQIQTYLEHNEGAGLQHLALMSEDIFRTLREMRKRSSIGGFDFMPSPPPTYYQNLKKRVGDVLSDDQIKECEELGILVDRDDQGTLLQIFTKPLGDRPTIFIEIIQRVGCMMKDEEGKAYQSGGCGGFGKGNFSELFKSIEEYEKTLEAKQLVG
